target: His-xBuGZ (Xenopus, UniProt Q7ZXV8 1-452); assay: incorporation into His-xBuGZ droplets

Binder | binding result
GFP-xBuGZ-C (domain or fragment, Xenopus, UniProt Q7ZXV8 376-452, looked up) GAMMAPRPGLPPQQHGMRHPLPPHGQYGAPLQGMAGYHPGTMPPFGQGPPMVPPFQGGPPRPLMGIRPPVMSQGGRY | binds
YFP-tagged xBuGZ (Xenopus BuGZ) (natural protein) not shown | binds

Second part, the binder after the results:

binding result | Binder
binds | GFP-xBuGZ-B (domain or fragment, Xenopus, UniProt Q7ZXV8 258-334, looked up) SAGQAQAHISGPVGTDFKPLNNIPATTAEHPKPTFPAYTQSTMSTTSTTNSTASKPSTSITSKPATLTTTSATSKLV
binds | GFP-xBuGZ-A (domain or fragment, Xenopus, UniProt Q7ZXV8 111-187, looked up) NQDDSDYDDDDDTAPSTSFQQMQTQQAFMPTMGQPGIPGLPGAPGMPPGITSLMPAVPPLISGIPHVMAGMHPHGMM

— article PMC4607269 (Cell, 2015)
